Residue numbers refer to the chain shown, from its start.
B1: 121 (protein)
chain: MAIIDCHGHYTTTPKGVEDYRNAQKAAVAKDPSFKGEKGQVVVSDDEIRESIENNQLKMQRERGTDLTIFSPRWDAGGHHIGNEYTSQFWTEHQNDLIRRVCDLFPKNFAPVAQLPQSPGVDPAKSVPEIVRTVEQMGFIGINLNPDPSGGYWKDTSLADRAFYPIYEKMVEYDIPAMIHPRLACNACFHTGLSVGLGADTTGFQQLIMSDVFKDFPSLKIIIPHGGGAVPYHWGRFRGLMQDQGYAPLEESALKNIYFDTCVYHQRGIDLLLDIVPTQNILFASEMIGAVRGIDPETGHNFDDTKRYIDNNTALNAEEKAMIFEGNARRVFSRLKTD
modifications: Dicamba decarboxylase variant clone: DC.12.014
B2: 1 (protein, listed as Rhizobium sp.)
chain: MAQGKVALEEHFAIPETLQDSAGFVPGDYWKELQHRLLDIQDTRLKLMDAHGIETMILSLNAPAVQAIPDRRKAIEIARRANDVLAEECAKRPDRFLAFAALPLQDPDAATEELQRCVNDLGFVGALVNGFSQEGDGQTPLYYDLPQYRPFWGEVEKLDVPFYLHPRNPLPQDSRIYDGHPWLLGPTWAFAQETAVHALRLMASGLFDEHPRLNIILGHMGEGLPYMMWRIDHRNAWVKLPPRYPAKRRFMDYFNENFHITTSGNFRTQTLIDAILEIGADRILFSTDWPFENIDHASDWFNATSIAEADRVKIGRTNARRLFKLDGA
B3: 120 (protein)
chain: MAIIDCHGHYTTTPKGVETYRNAQKAAVAKDPSFKYEKGQVVVSDDEIRESIENNQLKMQRERGTDLTIFSPRSTAGGHHIGNEYTSQFWTEHQNDLIRRVCDLFPKNFAPVAQLPQSPGVDPAKSVPEIVRTVEQMGFIGINLNPDPSGGYWKDTSLADRAFYPIYEKMVEYDIPAMIHPRNACNDCFHTTGSHALGADTTGFQQLIMSDVFKDFPSLKIIIPHGGGAVPYHWGRFRGLMQDQGYAPLEESALKNIYFDTCVYHQRGIDLLLDIVPTQNILFASEMIGAVRGIDAETGHNFDDTKRYIDNNTALNAEEKAMIFEGNARRVFSRLKTD
modifications: Dicamba decarboxylase variant clone: DC.12.002
B4: 122 (protein)
chain: B3 chain with T19D, Y36G, E286D, A296P
modifications: Dicamba decarboxylase variant clone: DC.12.103

Tests used:
[1] = Saturation mutagenesis of SEQ ID NO:109: dicamba decarboxylation activity of point mutants (CO2 released), fold of backbone (Tables 7, 8, Megatable 1); conditions: decarboxylation activity (CO2 released) of point mutant vs unmutated backbone protein; backbone SEQ ID NO: 109
[2] = GC/MS detection of decarboxylation product 2,5-DCA (toluene trapping or head space); format: biochemical; conditions: purified protein, dicamba substrate
Experimental: Alternatively, dicamba decarboxylase activity can be monitored by measuring decarboxylation products other than CO2 using product detection methods. The decarboxylation product of dicamba, 2,5-dichloro anisole or 2,5-DCA (FIG. 1C), is a volatile compound with a flash point of 21° C. To capture this volatile compound for detection, 140 ul of toluene solution is added on top of 1 ml reaction mixture to form a trapping layer in a 1.5 ml eppendorf tube. […] The reaction is kept still at room temperature overnight before being vortex mixed and centrifuged at 14,000 rpm for 15 minutes. The top toluene phase is carefully removed using a micropipette and transferred into a 12×32 mm polypropylene vial (Vial 11 mm) from MicroLiter Analytical Supplies, Inc. (catalog number 11-5300-100). The vial is sealed with Crimp seal (11 mm with FEP/Nat Rubber) from MicroLiter Analytical Supplies, Inc. (catalog number 11-0020A) using a E-Z Crimper™ 11 mm from Wheaton Inc. lul of the toluene mixture is taken from the sealed vials and injected in splitless mode into a GC/MS system for sample analysis (Agilent GC/MS system with a 6890A GC, a 5973N MSD and a CTC CombiPAL auto-sampler or with a 7890A GC, a 5975C MSD and an Agilent GC Sampler 80 auto-sampler). The GC parameters are: Agilent DB-5MS column (30 m length, 0.25 mm diameter, 0.25 um film) or equivalent; The GC inlet temperature, 250° C.; Carry gas, helium in constant flow mode (1.2 mL/min); The GC oven temperature program, initial temperature at 70° C. for 1 min, ramping to 200° C. at 15° C./min, and then ramping to 250° C. at 30° C./min. MS data acquisition is done in SIM (selected ion monitoring) mode, monitoring the positive ion at M/Z 176 for the molecular ion of […]. The solvent delay for MS acquisition is set at 4 min. Another method for detection of 2,5-DCA is a head-space GC/MS method. Briefly, reaction mixtures in 500 ul reaction volume are prepared in 1.5 ml 12×32 mm glass vials (Microliter Analytical Supplies, Cat#11-1200) for head space analysis. Glass vials are sealed with magnetic cap from MicroLiter Analytical Supplies, Inc. (catalog number 11-0030AT) using a E-Z Crimper™ 11 mm from Wheaton Industries Inc. The reaction is carried out at room temperature for various amount of time and stopped by heating at 95° C. for 5 min. The reaction vial is transferred to a agitator for incubation at 80° C. for 5 min at 500 rpm. With a syringe preheated at 80° C., 1000 uL of head space is injected with sample fill speed at 100 uL/sec. GC/MS parameters for headspace analysis are the same as for liquid sample analysis.

[3] = Dicamba decarboxylase activity / product analysis with purified His-tag protein (14C assay and product detection of Example 1); format: biochemical; conditions: for other products (than 2,5-DCA): purified protein, dicamba substrate; for dicamba decarboxylase activity: statement of the description
Experimental: To obtain purified protein for activity assays, IPTG-induced cells were harvested by centrifugation at 7,000 rpm for 10 mins Cell pellet from 50 mL of cell culture was frozen and thawed twice and then lysed in 8004 lysis buffer consisting of 50 mM potassium phosphate buffer (pH7.0), 50 μM ZnSO4, 5% EG, 50 mM KCl, 1 mM DTT, 0.2 mg/ml lysozyme, 1/200 protease inhibitor cocktail (EMD set3, EDTA free), and 1/2,000 endonuclease. Lysate was then centrifuged at 13,000 rpm for 45 min at 4° C. Supernatant was loaded onto 200 μL Ni-NTA columns pre-equilibrated with 10 mM His Buffer containing 25 mM potassium phosphate buffer pH7, 50 μM ZnSO4, 5% EG, 200 mM KCl, and 10 mM histidine. The columns were let sit at 4° C. until the entire supernatant passed through. Each column was then washed with 200 ul 10 mM His Buffer twice and then 4 times with 800 ul loading buffer consisting of 25 mM potassium phosphate buffer pH7, 50 μM ZnSO4, 5% EG, 200 mM KCl. Protein was eluted with 1504 of Elution Buffer consisting of 25 mM potassium phosphate buffer pH7, 50 μM ZnSO4, 5% EG, 100 mM KCl, 100 mM histidine, 10% glycerol. The protein concentration was measured by Bradford assay. Purified protein was used for dicamba decarboxylase activity measurement as described in Example 1. Enzyme kinetic characterization of selected dicamba decarboxylases was determined through GC/MS measurement of 2,5-DCP or PEPC coupled assay as described in Example 1.

[4] = LC-MS/MS detection of 4-chloro-3-methoxy phenol; format: biochemical; conditions: purified protein, dicamba substrate
Experimental: The decarboxylated and chloro hydrolyzed product, 4-chloro-3-methoxy phenol (FIG. 1D), is measured using a LC-MS/MS analytical procedure. […] 10 ul is removed from the reaction mixture and mixed with 90 ul pre-chilled methanol followed by centrifugation at 14,000 rpm for 15 min at 4° C. 10 ul of the supernatant is then transferred into 170 ul ddH2O to achieve 5% methanol solution for injection. 50 ul of the prepared sample is injected into a 4000 Q Trap LC-MS/MS system for sample analysis. LC-MS/MS parameters are: Mobile Phase A, 2 mM ammonium acetate in water; Mobile Phase B, 2 mM ammonium acetate in methanol; Column, Aquasil, 100×2.1 mm, 3 μm, C18 column; Flow Rate, 0.6 ml/min. The MS/MS fragment 157/142 which is common to 4-chloro-3-methoxy phenol, 2-chloro-5-methoxy phenol, and 3-chloro-5-methoxy phenol is monitored at a retention time of 2.88 min.

[5] = GC/MS detection of 2,5-DCP; format: biochemical; conditions: purified protein, dicamba substrate
Experimental: The decarboxylated and demethylated product of dicamba, 2,5-dichloro phenol or 2,5-DCP (FIG. 1E) is measured using a GC/MS analytical procedure with either liquid injection after liquid/liquid extraction using toluene as the extraction solvent or gas injection using head space method. The head space sample analysis is carried out on an Agilent GC/MS system with a 6890A GC, a 5973N MSD and a CTC CombiPAL auto-sampler or with a 7890A GC, a 5975C MSD and an Agilent GC Sampler 80 auto-sampler with Phenomenex ZB-MultiResidue-1 column (30 m length, 0.25 mm diameter, 0.25 um film) or equivalent. GC/MS parameters are: GC inlet temperature, 200° C.; Carry gas, helium in constant flow mode (1.2 mL/min); Oven temperature program, 70° C. for 1 min and then ramp to 275° C. at 40° C./min. Protein reactions are carried out in a 1.5 ml 12×32 mm glass vials for head space analysis as described previously. The reaction vial is transferred to a agitator for incubation at 90° C. for 4 min at 500 rpm. With a syringe preheated at 110° C., 1000 uL of head space is injected with sample fill speed at 100 uL/sec. A 2-mm diameter liner is used in sample inlet. The MS data acquisition is done in SIM (selected ion monitoring) mode. The positive ion at M/Z 162 for the molecular ion of 2,-5-DCP is monitored at retention time of 4.06 min. Solvent delay for MS acquisition is set at 3 min. […]

Molecule | Fold Activity [1] [fold] | minor decarboxylation product 2,5-DCA [2] | other products (than 2,5-DCA) [3] | dicamba decarboxylase activity [3] | relative amount of 4-chloro-3-methoxy phenol compared to CO2 formation (100%) [4] [%] | relative amount of 2,5-DCP compared to CO2 formation (100%) [5] [%] | relative amount of 2,5-DCA compared to CO2 formation (100%) [2] [%]
B1 | 1 | detected | not detected | shown herein to have dicamba decarboxylase activity | – | – | –
B2 | 1.2 | – | – | native dicamba decarboxylase activity | < 10 | > 80 | < 1
B3 | 1.3 | detected | not detected | shown herein to have dicamba decarboxylase activity | – | – | –
B4 | 0.9 | detected | not detected | shown herein to have dicamba decarboxylase activity | – | – | –

From patent US20160040149A1, “Compositions Having Dicamba Decarboxylase Activity and Methods of Use” (priority 2013, published 2016)
